Data as given in the supplement of paper PMC9170038.

Tests used:
[1] = test system: K4 kissing-loop RNA reporter; assay: apparent KD of K4 kissing-loop reporter; higher = weaker reporter binding; settings: Eterna round: R107;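 also: bound reporter read as fluorescence of individual clusters on recovered sequencing chips by microscopy, with normalized cluster intensities fitted with a binding model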
Description: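 RNA-MaP round R107: designed RNA switches with theophylline, tryptophan, arginine or FMN aptamers are transcribed on-chip within common flanks. They are titrated with a labelled K4 kissing-loop RNA reporter in RNA-MaP buffer (100 mM Tris pH 7.5, 80 mM KCl, 4 mM MgCl2), without ligand or with the indicated ligand. Median apparent KD per design.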

MS2 coat protein = assay: apparent KD of MS2 coat protein; designed switch direction (-1 OFF switch, 1 ON switch): -1; higher = weaker reporter binding
Method in brief: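 For each design, the apparent KD is the median over clusters of curves fitted to normalised cluster fluorescence. Clusters held RNA switches with common flanks, transcribed on Illumina chips by stalled E. coli RNA polymerase. These were titrated with SNAP-549-labelled MS2 coat protein, doubling from 0.7 or 1.5 nM to 3 µM, without input, with 200 uM small-molecule ligand, or with an oligonucleotide input.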

[2] = input ligand: theophylline 20 uM
[3] = input ligand: tryptophan 2.4 mM
[4] = input ligand: microRNA oligo, concentration not stated
[5] = Eterna round: R95, input ligand: FMN 200 uM
[6] = Eterna round: R95, input ligand: microRNA oligo, concentration not stated
[7] = Eterna round: R95, input ligand: none

| Sequence | apparent KD of K4 kissing-loop reporter ([1]; input ligand: FMN 200 uM) | apparent KD of K4 kissing-loop reporter ([1]; input ligand: arginine 13.2 mM) | apparent KD of K4 kissing-loop reporter ([1]; input ligand: none) | apparent KD of K4 kissing-loop reporter [1, 2] | apparent KD of K4 kissing-loop reporter [1, 3] | apparent KD of MS2 coat protein (MS2 coat protein; input ligand: FMN 200 uM) | apparent KD of MS2 coat protein (MS2 coat protein; input ligand: none) | also measured |
| --- | --- | --- | --- | --- | --- | --- | --- | --- |
| UAUCGAGUGAUGUUCGAUGUAGUCCAUUCAGAGGAUAUAGGAUUGACUAGAAGGCUGAAACCUUCUUCGAGUGAUGUUCGAGGAU [Same State FMN A GF4] | 92.5 nM | 39.6 nM | 58.9 nM | 45.2 nM | 47.4 nM |  |  |  |
| UGUACAUGUCACCGAGUGAUGUUCGACGAUACCAGACUCGAUAGAGUCCCUUGGCAGCGUAACGCAUGCCAAAGUGGCAUGUACU [#SwitchBubble 10 #K4Early] | 925 nM | 521 nM | 721 nM | 496 nM | 598 nM |  |  |  |
| AUUAUAAAGUCGGCCGCCACUGAGAGUAGUGAUGUUACUCUUUUCCUUUAGAUAUUAUAUUUUAUCAGGACCGGGACAUCUGAUU [JR_Nu_ExcTryptoB_Sub024] | 147 nM | 126 nM | 148 nM | 134 nM | 130 nM |  |  |  |
| GCCUACGCUGCAGGAUAUAGUUACAGCGACUUAGCCGUUGUAUGUCCAUGGUUCAGUGAUGUUGAACUAGAAGGGCAGCGUAGGC [#02 K4 FMN B Exclusion] | 285 nM | 127 nM | 132 nM | 134 nM | 154 nM |  |  |  |
| GGUCCGCACAUGAGUGAUGUUCAUGUAGAUACCAGUAUCGAAAGAUACCCUUGGCAGCUACGGCACGGACCGGCGGGAAACCGCC | 213 nM | 200 nM | 194 nM | 291 nM | 184 nM |  |  |  |
| GGUCCGGGCUCGGCCGCCACUCCCUCCUGCCGCAAGGUGGGAUACCGAGUGAUGUUCGGUUGGAGGAGGACCGGGAGCCCGGACC [#2 Exclusion - Tryptophan B Attempt #14 (HarryS)] | 115 nM | 124 nM | 121 nM | 133 nM | 118 nM |  |  |  |
| UGAUACCAGACGGCCGCCACUGGGACCGGGAGUGAUGUUCCAAAUAAAAGAAACUCGGCCGCCACUAGGACCGGGUCUGGUAUCU [TrypBX 30 #DoubleAptamer #SwitchBubble] | 622 nM | 278 nM | 379 nM | 479 nM | 110 nM |  |  |  |
| UGAUACCAGACGGCCGCCACUCCCGCAGGUCAAAGACCUGCGAAGAUGGUUCUUCAGUGAUGUUGGAGGACCGGGUCUGGUAUCU [FiskerMod 23 - Jieux - Exclusion - Tryptophan B] | 173 nM | 128 nM | 137 nM | 140 nM | 314 nM |  |  |  |
| UUUCGGUUCUGAGGAUAUUCGGACAAAUAUAGUGAUGUUGUAUAAGGAGGAGGGUGUUGGCAGUGCGGAGAAGGCAGAAGAGGAU [ExFMNB.U] | 848 nM | 737 nM | 992 nM | 556 nM | 446 nM |  |  |  |
| CCGCUGUACUGCAUUAAGUGAUGUUUAGUGCAGGAUAUCUGGAAACAGAGAAGGGCAUGUACUCGACUUAGCCACUACAGCGGUU | 221 nM | 123 nM | 142 nM | 119 nM | 129 nM |  |  |  |
| GCUAUGGUAGGAAGGAGCGCUUAUUUAUUUUUAAGAGUGAUGUUCGUUAGUAGAUAGUUAAAGCAGGUAGGUCGCCUACUAUAGC [Arginine B K4 15] | 146 nM | 177 nM | 171 nM | 161 nM | 100 nM |  |  |  |
| AAACCUCACAACCGUUAAAACAUGAGGAUCACCCAUGUGCCGUAACGGCGCAUGGUCGAGCUAGGCUCGUCCAUGCA [Zamacelaso] (Eterna round: R96, puzzle: Sensor v2, turn-off variant) |  |  |  |  |  | 12 nM | 15.4 nM | apparent KD of MS2 coat protein (MS2 coat protein; [4]): 10.2 nM |
| GCAGGUCAAGGAUAUACAUGAGGAUCACCCAUGUAGAUCAACCAGCGAUAGCUGGAAUGUAGAAGGUGACCUGC [E3/5-C2] (Eterna round: R97, puzzle: Exclusion 3) |  |  |  |  |  | 67.6 nM | 23.7 nM |  |
| CUUAGACAUGAGGAUCACCCAUGUGAGGAUAUGAUGAGGAUAAGGAAGGAAGAAGGAAUCAGAAGGCACAUAUG [Mat - Mod of Hyphema D27] (puzzle: Exclusion 1) |  |  |  |  |  |  |  | apparent KD of MS2 coat protein (MS2 coat protein; [5]): 102 nM; apparent KD of MS2 coat protein (MS2 coat protein; [6]): 69.4 nM; apparent KD of MS2 coat protein (MS2 coat protein; [7]): 74.2 nM |
| AUGUGAUUGGCUCUGAGACAUGAGGAUCACCCAUGUGGAGCGCAGGAUAUCCGAACCGUGAAGGCGGAGAAGGGCGUCGUGGUA [Zasorequer] (Eterna round: R96, puzzle: Exclusion NG 3) |  |  |  |  |  | 39.6 nM | 26 nM | apparent KD of MS2 coat protein (MS2 coat protein; [4]): 20.5 nM |
| GCUAUGACUGUGAGGAUAUGGACCGGGCUCUCGGAUUAGAAGGCACAUGAGGAUCACCCAUGUGAUCACGUACU [Eternabot (L2) Solution 87] (Eterna round: R97, puzzle: Brourd's mod of Exclusion 4) |  |  |  |  |  | 42.2 nM | 27.5 nM |  |
| AAGAAACGAGGAUAUACAAUUAAGUGAGAGAGGGAAAUGUGACAUGAGGAUCACCCAUGUAGAAGGCGUAAGAG [JR_Exclu2_Sub084] (puzzle: Exclusion 2) |  |  |  |  |  |  |  | apparent KD of MS2 coat protein (MS2 coat protein; [5]): 66.2 nM; apparent KD of MS2 coat protein (MS2 coat protein; [6]): 44.2 nM; apparent KD of MS2 coat protein (MS2 coat protein; [7]): 53.5 nM |
| CCAACUAAUUAGGAUAUUAAGGACAUCAGUAAGUAAGAAGGGAUUACAUGAGGAUCACCCAUGUGGUCCUCGGG [Eternabot (L2) Solution 57] (Eterna round: R97, puzzle: Exclusion 6) |  |  |  |  |  | 226 nM | 147 nM |  |
| AGGUCACAUGAGGAUCACCCAUGUCAGGAUAUCGUCACUGGAGCUUCGGCUCCAGUGACGAGAAGGGACAAUUA [E1/6-A1] (Eterna round: R97, puzzle: Exclusion 1) |  |  |  |  |  | 499 nM | 80.5 nM |  |
| AGCCACAGAGGAUAUACAUACAUCCAGUAGUAGAGAAUACUACAUGAGGAUCACCCAUGUAGAAGGCUGUGGCA [Omei Ex2 BD B14] (Eterna round: R97, puzzle: Exclusion 2) |  |  |  |  |  | 316 nM | 438 nM |  |
| CUGUACAUAGGAUAUAGUUGCUUUUACAUGAGGAUCACCCAUGUCACUCCUCUCUCUCUUCUAGAAGGAUGUUUCU [JR_E5_Sub009] (puzzle: Exclusion 5) |  |  |  |  |  |  |  | apparent KD of MS2 coat protein (MS2 coat protein; [6]): 68.4 nM |
| CCGAUGUCAGGAUAUAGCGGUCGCUGCCACGGUGGAGUCUGCUAGAAGGGACAUGAGGAUCACCCAUGUCGAAC [Eternabot (Original) Solution 49] (Eterna round: R97, puzzle: Exclusion 4) |  |  |  |  |  | 57.7 nM | 23.4 nM |  |
| UCUUGUUGUCCGUGAGAAGACAUGAGGAUCACCCAUGUUAGUUUGAUUAUGAUGUGUAAGUUUGUUGCUCGUUUUAU [JR_STOV1_v2_Sub071] (Eterna round: R97, puzzle: Sensor, turn-off variant 1) |  |  |  |  |  | 50.2 nM | 56.5 nM |  |
| ACAGUUCUGCAAGGAUAUCGUUCUAGUUUAGUACGAGAAGGUGCUUUAGUUUUUUCUUUGUGUUGACAUGAGGAUCACCCAUGU [JR_ExcNG1_Sub054] (Eterna round: R96, puzzle: Exclusion NG 1) |  |  |  |  |  |  |  | apparent KD of MS2 coat protein (MS2 coat protein; [4]): 17.5 nM |
| UACAUGAGGAUCACCCAUGUUUUGUCGUGUAUGGUAUUUAUCUAGGAUAUCAAUUUAGUCAUUUAUGAGAAGGAGAAUAUUAAU [JMF's solution 74] (Eterna round: R96, puzzle: Exclusion NG 3) |  |  |  |  |  | 35.5 nM | 38.4 nM | apparent KD of MS2 coat protein (MS2 coat protein; [4]): 28.6 nM |
| UUUAGUCGUGACAUGGGUGACAUGAGGAUCACCCAUGUCACAAGCUUGUUGCUCGUCUUAUAAUUAACCCAUGUCAC [LRO Sensor-off var1-15 mod of Stov1-13-A1 by Brourd] (Eterna round: R97, puzzle: Sensor, turn-off variant 1) |  |  |  |  |  | 19.3 nM | 19.6 nM |  |
| AGUACAUACACGAAAGUGUAUGUACAAUAAGCUUGUGGAACAUGAGGAUCACCCAUGUCCUCAUAAGCUCGUCUUAU [Mat - Sensor v3 - Turn-off var 2 - D30] (puzzle: Sensor v3, turn-off variant 2) |  |  |  |  |  |  |  | apparent KD of MS2 coat protein (MS2 coat protein; [5]): 16.5 nM; apparent KD of MS2 coat protein (MS2 coat protein; [6]): 71.4 nM; apparent KD of MS2 coat protein (MS2 coat protein; [7]): 15.5 nM |
